# Test results taken from PMC2695768.
# Target: influenza virus nucleoprotein (NP), A/Victoria/3/75, wild type (influenza A virus A/Victoria/3/75)
# Assay: cryo-EM structure
substance,measurement,value
"influenza virus nucleoprotein (NP), A/Victoria/3/75, wild type (natural protein)",stoichiometry N,9
